Measurements published in publication PMC10958042.

B1: ATGL (PNPLA2, patatin-like phospholipase domain-containing protein 2), human, full length / CGI-58 (ABHD5, 1-acylglycerol-3-phosphate O-acyltransferase ABHD5), human (parent)
chain 1: MFPREKTWNISFAGCGFLGVYYVGVASCLREHAPFLVANATHIYGASAGALTATALVTGVCLGEAGAKFIEVSKEARKRFLGPLHPSFNLVKIIRSFLLKVLPADSHEHASGRLGISLTRVSDGENVIISHFNSKDELIQANVCSGFIPVYCGLIPPSLQGVRYVDGGISDNLPLYELKNTITVSPFSGESDICPQDSSTNIHELRVTNTSIQFNLRNLYRLSKALFPPEPLVLREMCKQGYRDGLRFLQRNGLLNRPNPLLALPPARPHGPEDKDQAVESAQAEDYSQLPGEDHILEHLPARLNEALLEACVEPTDLLTTLSNMLPVRLATAMMVPYTLPLESALSFTIRLLEWLPDVPEDIRWMKEQTGSICQYLVMRAKRKLGRHLPSRLPEQVELRRVQSLPSVPLSCAAYREALPGWMRNNLSLGDALAKWEECQRQLLLGLFCTNVAFPPEALRMRAPADPAPAPADPASPQHQLAGPAPLLSTPAPEARPVIGALGL
chain 2: MAAEEEEVDSADTGERSGWLTGWLPTWCPTSISHLKEAEEKMLKCVPCTYKKEPVRISNGNKIWTLKFSHNISNKTPLVLLHGFGGGLGLWALNFGDLCTNRPVYAFDLLGFGRSSRPRFDSDAEEVENQFVESIEEWRCALGLDKMILLGHNLGGFLAAAYSLKYPSRVNHLILVEPWGFPERPDLADQDRPIPVWIRALGAALTPFNPLAGLRIAGPFGLSLVQRLRPDFKRKYSSMFEDDTVTEYIYHCNVQTPSGETAFKNMTIPYGWAKRPMLQRIGKMHPDIPVSVIFGARSCIDGNSGTSIQSLRPHSYVKTIAILGAGHYVYADQPEEFNQKVKEICDTVD

Variants of: B1
Experiment: LUMIER: Protein A-ATGL variant and firefly luciferase-partner co-expressed in HEK293T, lysates immunoprecipitated on IgG-coated plates, co-precipitated partner measured as luciferase luminescence
Conditions: with CGI-58 (ABHD5, 1-acylglycerol-3-phosphate O-acyltransferase ABHD5), transient co-transfection, IgG-coated LUMITRAC plates, 2 h at 4 °C, three PBS washes, Bright-Glo luciferase reagent, triplicates per assay, two …, scale: log2 fold change of co-immunoprecipitated luminescence relative to wild-type ATGL within each experiment

Row | Variant | screen value (parent: 0.32, not graded) | screen value (parent: 0.45, not graded)
1 | chain 1 MFPREKTWNISFAGCGFLGVYYVGVASCLREHAPFLVANATHIYGASAGALTATALVTGVCLGEAGAKFIEVSKEARKRFLGPLHPSFNLVKIIRSFLLKVLPEDSHEHASGRLGISLTRVSDGENVIISHFNSKDELIQANVCSGFIPVYCGLIPPSLQGVRYVDGGISDNLPLYELKNTITVSPFSGESDICPQDSSTNIHELRVTNTSIQFNLRNLYRLSKALFPPEPLVLREMCKQGYRDGLRFLQRNGLLNRPNPLLALPPARPHGPEDKDQAVESAQAEDYSQLPGEDHILEHLPARLNEALLEACVEPTDLLTTLSNMLPVRLATAMMVPYTLPLESALSFTIRLLEWLPDVPEDIRWMKEQTGSICQYLVMRAKRKLGRHLPSRLPEQVELRRVQSLPSVPLSCAAYREALPGWMRNNLSLGDALAKWEECQRQLLLGLFCTNVAFPPEALRMRAPADPAPAPADPASPQHQLAGPAPLLSTPAPEARPVIGALGL [chain 1 A104E] | 0.291 | 0.0407
2 | chain 1 MFPREKTWNISFAGCGFLGVYYVGVASCLREHAPFLVANATHIYGASAGALTATALVTGVCLGEAGAKFIEVSKEARKRFLGPLHPSFNLVKIIRSFLLKVLPADSHEHASGRLGISLTRVSDGENVIISHFNSKDELIQANVCSGFIPVYCGLIPPSLQGVRYVDGGISDNLPLYELKNTITVSPFSGESDICPQDSSTNIHELRVTNTSIQFNLRNLYRLSKALFPPEPLVLREMCKQGYRDGLRFLQRNGLLNRPNPLLALPPARPHGPEDKDQAVESAQAEDYSQLPGEDHILEHLPARLNEALLEACVEPTDLLTTLSNMLPVRLATAMMVPYTLPLESALSFTIRLLEWLPDVPEDIRWMKEQTGSICQYLVMRAKRKLGRHLPSRLPEQVELRRVQSLPSVPLSCAAYREALPGWMRNNLSLGDALLKWEECQRQLLLGLFCTNVAFPPEALRMRAPADPAPAPADPASPQHQLAGPAPLLSTPAPEARPVIGALGL [chain 1 A434L] | 0.0792 | 0.226
3 | chain 1 MFPREKTWNISFAGCGFLGVYYVGVASCLREHAPFLVANATHIYGASAGALTATALVTGVCLGEAGAKFIEVSKEARKRFLGPLHPSFNLVKIIRSFLLKVLPADSHEHASGRLGISLTRVSDGENVIISHFNSKDELIQANVCSGFIPVYCGLIPPSLQGVRYVDGGISDNLPLYELKNTITVSPFSGESDICPQDSSTNIHELRVTNTSIQFNLRNLYRLSKALFPPEPLVLREMCKQGYRDGLRFLQRNGLLNRPNPLLALPPARPHGPEDKDQAVESAQAEDYSQLPGEDHILEHLPARLNEALLEACVEPTDLLTTLSNMLPVRLATAMMVPYTLPLESALSFTIRLLEWLPDVPEDIRWMKEQTGSICQYLVMRAKRKLGRHLPSRLPEQVELRRVQSLPSVPLSCAAYREALPGWMRNNLSLGDALAKWEECQRQLLLGLFCTNVEFPPEALRMRAPADPAPAPADPASPQHQLAGPAPLLSTPAPEARPVIGALGL [chain 1 A453E] | 0.381 | 0.474
4 | chain 1 MFPREKTWNISFAGCGFLGVYYVGVASCLREHAPFLVANATHIYGASAGALTATALVTGVCLGEAGAKFIEVSKEARKRFLGPLHPSFNLVKIIRSFLLKVLPADSHEHASGRLGISLTRVSDGLNVIISHFNSKDELIQANVCSGFIPVYCGLIPPSLQGVRYVDGGISDNLPLYELKNTITVSPFSGESDICPQDSSTNIHELRVTNTSIQFNLRNLYRLSKALFPPEPLVLREMCKQGYRDGLRFLQRNGLLNRPNPLLALPPARPHGPEDKDQAVESAQAEDYSQLPGEDHILEHLPARLNEALLEACVEPTDLLTTLSNMLPVRLATAMMVPYTLPLESALSFTIRLLEWLPDVPEDIRWMKEQTGSICQYLVMRAKRKLGRHLPSRLPEQVELRRVQSLPSVPLSCAAYREALPGWMRNNLSLGDALAKWEECQRQLLLGLFCTNVAFPPEALRMRAPADPAPAPADPASPQHQLAGPAPLLSTPAPEARPVIGALGL [chain 1 E125L] | -0.624 | -0.2

Further lines, results first:

Row | screen value (parent: 0.32, not graded) | screen value (parent: 0.45, not graded) | Variant
5 | -0.218 | -0.112 | chain 1 MFPREKTWNISFAGCGFLGVYYVGVASCLREHAPFLVANATHIYGASAGALTATALVTGVCLGEAGAKFIEVSKEARKRFLGPLHPSFNLVKIIRSFLLKVLPADSHEHASGRLGISLTRVSDGENVIISHFNSKDELIQANVCSGFIPVYCGLIPPSLQGVRYVDGGISDNLPLYELKNTITVSPFSGESDICPQDSSTNIHELRVTNTSIQFNLRNLYRLSKALFPPEPLVLREMCKQGYRDGLRFLQRNGLLNRPNPLLALPPARPHGPEDKDQAVESAQAEDYSQLPGEDHILEHLPARLNEALLEACVAPTDLLTTLSNMLPVRLATAMMVPYTLPLESALSFTIRLLEWLPDVPEDIRWMKEQTGSICQYLVMRAKRKLGRHLPSRLPEQVELRRVQSLPSVPLSCAAYREALPGWMRNNLSLGDALAKWEECQRQLLLGLFCTNVAFPPEALRMRAPADPAPAPADPASPQHQLAGPAPLLSTPAPEARPVIGALGL [chain 1 E314A]
6 | -0.427 | -0.714 | chain 1 MFPREKTWNISFAGCGFLGVYYVGVASCLREHAPFLVANATHIYGASAGALTATALVTGVCLGEAGAKFIEVSKEARKRFLGPLHPSFNLVKIIRSFLLKVLPADSHEHASGRLGISLTRVSDGENVIISHFNSKDELIQANVCSGFIPVYCGLIPPSLQGVRYVDGGISDNLPLYELKNTITVSPFSGESDICPQDSSTNIHELRVTNTSIQFNLRNLYRLSKALFPPEPLVLREMCKQGYRDGLRFLQRNGLLNRPNPLLALPPARPHGPEDKDQAVESAQAEDYSQLPGEDHILEHLPARLNEALLEACVEPTDLLTTLSNMLPVRLATAMMVPYTLPLESALSFTIRLLEWLPDVPEDIRWMKAQTGSICQYLVMRAKRKLGRHLPSRLPEQVELRRVQSLPSVPLSCAAYREALPGWMRNNLSLGDALAKWEECQRQLLLGLFCTNVAFPPEALRMRAPADPAPAPADPASPQHQLAGPAPLLSTPAPEARPVIGALGL [chain 1 E368A]
